{"source": "patent US20230093708A1", "about": "“PROTEIN NANOPARTICLE DESIGN AND APPLICATION” (Duke University, priority 2020, published 2023)", "key": {"[1]": {"assay": "Static and dynamic light scattering (SLS/DLS) of block co-polypeptides", "type": "physicochemical", "outline": "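Samples at 10 μM in PBS (140 mM NaCl, 10 mM phosphate, 3 mM KCl, pH 7.4), filtered 0.45 μm, measured at 15 °C over 30°–150° in 5° steps. Rh from cumulant fit of DLS, extrapolated to zero angle. Rg and MW from partial Zimm plots of SLS.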"}, "[2]": {"assay": "Critical micelle concentration by pyrene I1/I3 fluorescence", "type": "physicochemical", "conditions": "inflection point of sigmoidal fit, triplicate data", "protocol": "Key parameters of interest are the hydrophilicity of the corona-forming block, the hydrophilicity of the core block, the overall length of the co-polypeptide and the ratio of the two blocks. Parameters of evaluation are the size, morphology, stability, and thermoresponsive behavior. All measurements were made in 140 mM NaCl, 10 mM phosphate buffer, 3 mM KCl, pH 7.4 unless otherwise specified. Size was evaluated by the hydrodynamic radios (Rh) and radius of gyration (Rg) by dynamic light scattering (DLS) and static light scattering (SLS) respectively. Rg and Rh can be combined to yield the shape factor ρ=Rg/Rh, which provides a rough indication of the morphology of the scatterer. […] For an elongated scatterer, the shape factor depends upon the aspect ratio. A combination of temperature dependent turbidity and DLS was utilized to determine the phase behavior of the block co-polypeptides. Cryogenic transmission electron microscopy (Cryo-TEM) was utilized to evaluate the morphology and provide crucial insight into the hydration of the core/corona chains. Stability of the assembled nanostructure was determined by a shift in the I1/I3 fluorescent bands of pyrene as described previously.\nAll of these modifications to the core and corona chains prompted us to measure the critical micelle concentration (CMC) of these micelle constructs. […]"}, "[3]": {"assay": "Temperature-programmed dynamic light scattering", "type": "physicochemical", "protocol": "Temperature-programmed dynamic light scattering experiments were carried out using a Dynapro plate reader (Wyatt Technology; Santa Barbara, Calif.) with samples filtered through 0.45 μm Millex-GV filters. Data were collected at increments of 1° C., and the cumulant fit hydrodynamic radius was taken as the radius. The Tt was defined as the temperature at which aggregates of size hundreds of nanometers were formed.\nEach block co-polypeptide was analyzed by dynamic light scattering (DLS) at several temperatures between 4° C. and 37° C. to determine the thermal stability of the micelles, and to determine their radius of hydration (Rh). […] In contrast, RLP40-ELP80 (SEQ ID NO: 84) and RLP40-ELP80-Fn3 (SEQ ID NO: 96) self-assembled into micelles with a Rh of 30 and 32 nm, respectively, between 20-37° C. (FIG. 15).\nTherefore, to get a more accurate picture, we monitored the Rh as we slowly cooled the solution. We observed two different overall behaviors. [S]-40-[QHN]-40 (SEQ ID NO: 100) upon cooling underwent a clear unimer to micelle transition at ˜55° C. and a clear micelle to aggregate transition at 28° C. (FIG. 32B). A unimer to micelle transition that is temperature dependent is known as the critical micellization temperature (CMT). As we know from before, this UCST aggregation temperature is dependent on the solution concentration. [S]-80-[QHN]-40 (SEQ ID NO: 101) remained a micelle at the highest temperature we could measure with the instrument. Upon cooling the size of the aggregate increased slightly until a clear aggregate transition at 18° C."}, "K562+αvβ3 cell line": {"test_system": "K562+αvβ3 cell line", "assay": "Flow cytometry cell uptake of Alexa488-labeled micelles", "type": "cell-based", "conditions": "10 μM, 37 °C, 2 hours", "protocol": "Approximately 1×10^8 cells were harvested from either K562 or K562+αvβ3 cell lines and resuspended into 1 mL of serum-free medium containing 10 μM of the various Fn3-decorated and control block polypeptides. LM609 antibody was also resuspended at 10 μM in serum-free medium. Micelles were prepared from a mixture of ˜10% Alexa 488 dye-labeled RLP-ELP block co-polypeptides and 90% unlabeled polypeptides on a molar basis. The cells were incubated at 37° C. with the labeled micelles for a specified time, then rinsed with 1 mL of Hanks Buffered Saline Solution (HBSS), collected by centrifugation at 500 RCF for 5 min at 20° C., and resuspended in HBSS+1% BSA. Cells were maintained on ice until they were analyzed by flow cytometry (BD Accuri C5). The cell fluorescence intensity of Alexa 488 (Green) was quantified after gating to remove cellular debris on unstained control samples.\nTo assess the intracellular uptake of these particles, we used a cell line stably transfected with the αvβ3 integrin. The native cell line, K562, has endogenously low levels of expression of this receptor and therefore serves as the receptor-negative control, and the un-decorated RLPXX-ELP80 micelles serve as ligand-negative controls for each type—size and shape—of micelle. […]"}, "[4]": {"assay": "Cryo-TEM micelle core size, inter-core spacing and aspect ratio", "type": "physicochemical", "outline": "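Vitrified 10 μM RLPn-ELP80 (3 s blot, chamber at 15° C., 100% humidity) imaged by cryo-TEM at 80 keV. Core size and spacing measured manually on at least 25 particles; aspect ratio from the longest straight line of a particle and its perpendicular.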"}, "[5]": {"conditions": "Table 9, UCST-UCST block co-polypeptides"}, "[6]": {"conditions": "Table 8, 15 °C, 140 mM PBS, 10 μM"}}, "data": [{"molecule": "[S]-80-[QHN]-40: block co-polypeptide of two UCST blocks, (GRGDSPYS)80-(GRGDQPHN)40 (protein) GRGDSPYSGRGDSPYSGRGDSPYSGRGDSPYSGRGDSPYSGRGDSPYSGRGDSPYSGRGDSPYSGRGDSPYSGRGDSPYSGRGDSPYSGRGDSPYSGRGDSPYSGRGDSPYSGRGDSPYSGRGDSPYSGRGDSPYSGRGDSPYSGRGDSPYSGRGDSPYSGRGDSPYSGRGDSPYSGRGDSPYSGRGDSPYSGRGDSPYSGRGDSPYSGRGDSPYSGRGDSPYSGRGDSPYSGRGDSPYSGRGDSPYSGRGDSPYSGRGDSPYSGRGDSPYSGRGDSPYSGRGDSPYSGRGDSPYSGRGDSPYSGRGDSPYSGRGDSPYSGRGDSPYSGRGDSPYSGRGDSPYSGRGDSPYSGRGDSPYSGRGDSPYSGRGDSPYSGRGDSPYSGRGDSPYSGRGDSPYSGRGDSPYSGRGDSPYSGRGDSPYSGRGDSPYSGRGDSPYSGRGDSPYSGRGDSPYSGRGDSPYSGRGDSPYSGRGDSPYSGRGDSPYSGRGDSPYSGRGDSPYSGRGDSPYSGRGDSPYSGRGDSPYSGRGDSPYSGRGDSPYSGRGDSPYSGRGDSPYSGRGDSPYSGRGDSPYSGRGDSPYSGRGDSPYSGRGDSPYSGRGDSPYSGRGDSPYSGRGDSPYSGRGDSPYSGRGDSPYSGRGDQPHNGRGDQPHNGRGDQPHNGRGDQPHNGRGDQPHNGRGDQPHNGRGDQPHNGRGDQPHNGRGDQPHNGRGDQPHNGRGDQPHNGRGDQPHNGRGDQPHNGRGDQPHNGRGDQPHNGRGDQPHNGRGDQPHNGRGDQPHNGRGDQPHNGRGDQPHNGRGDQPHNGRGDQPHNGRGDQPHNGRGDQPHNGRGDQPHNGRGDQPHNGRGDQPHNGRGDQPHNGRGDQPHNGRGDQPHNGRGDQPHNGRGDQPHNGRGDQPHNGRGDQPHNGRGDQPHNGRGDQPHNGRGDQPHNGRGDQPHNGRGDQPHNGRGDQPHN", "values": [{"measurement": "shape factor / form factor (Rg/Rh)", "setting": "[1]", "value": "> 1"}, {"measurement": "ρ", "setting": "[1]; Table 9, Rg/Rh", "value": 1.2}, {"measurement": "Nagg", "setting": "[1]; [5]", "value": 1430}, {"measurement": "Rg(nm)", "setting": "[1]; [5]", "value": 75.7, "unit": "nm"}, {"measurement": "Rh (nm)", "setting": "[1]; [5]", "value": 62.8, "unit": "nm"}, {"measurement": "critical micelle concentration (CMC)", "setting": "[2]", "value": 0.4, "unit": "µM"}, {"measurement": "micelle to aggregate transition (UCST aggregation)", "setting": "[3]; upon cooling", "value": 18, "unit": "°C"}]}, {"molecule": "RLP40-ELP80: RLP-ELP block co-polypeptide forming spherical micelles (protein) QYPSDGRGQYPSDGRGQYPSDGRGQYPSDGRGQYPSDGRGQYPSDGRGQYPSDGRGQYPSDGRGQYPSDGRGQYPSDGRGQYPSDGRGQYPSDGRGQYPSDGRGQYPSDGRGQYPSDGRGQYPSDGRGQYPSDGRGQYPSDGRGQYPSDGRGQYPSDGRGQYPSDGRGQYPSDGRGQYPSDGRGQYPSDGRGQYPSDGRGQYPSDGRGQYPSDGRGQYPSDGRGQYPSDGRGQYPSDGRGQYPSDGRGQYPSDGRGQYPSDGRGQYPSDGRGQYPSDGRGQYPSDGRGQYPSDGRGQYPSDGRGQYPSDGRGQYPSDGRGGAGVPGGGVPGAGVPGGGVPGAGVPGGGVPGAGVPGGGVPGAGVPGGGVPGAGVPGGGVPGAGVPGGGVPGAGVPGGGVPGAGVPGGGVPGAGVPGGGVPGAGVPGGGVPGAGVPGGGVPGAGVPGGGVPGAGVPGGGVPGAGVPGGGVPGAGVPGGGVPGAGVPGGGVPGAGVPGGGVPGAGVPGGGVPGAGVPGGGVPGAGVPGGGVPGAGVPGGGVPGAGVPGGGVPGAGVPGGGVPGAGVPGGGVPGAGVPGGGVPGAGVPGGGVPGAGVPGGGVPGAGVPGGGVPGAGVPGGGVPGAGVPGGGVPGAGVPGGGVPGAGVPGGGVPGAGVPGGGVPGAGVPGGGVPGAGVPGGGVPGAGVPGGGVPGAGVPGGGVPGAGVPGGGVPGAGVPGGGVPGAGVPGGGVPGAGVPGGGVPGAGVPGGGVPGAGVPGGGVPGAGVPGGGVPGAGVPGGGVPGAGVPGGGVPGAGVPGGGVPGAGVPGGGVPGAGVPGGGVPGAGVPGGGVPGAGVPGGGVPGAGVPGGGVPGAGVPGGGVPGAGVPGGGVPGAGVPGGGVPGAGVPGGGVPGAGVPGGGVPGAGVPGGGVPGAGVPGGGVPGAGVPGGGVPGAGVPGGGVPGAGVPGGGVPGAGVPGGGVPGAGVPGGGVPGAGVPGGGVPGAGVPGGGVPGAGVPGGGVPGAGVPGGGVPGAGVPGGGVPGAGVPGGGVPGAGVPGGGVPGAGVPGGGVPGAGVPGGGVPGAGVPGGGVPGAGVPGGGVPGAGVPGGGVPGAGVPGGGVPGAGVPGGGVPGAGVPGGGVP", "values": [{"measurement": "Nagg", "setting": "[1]; Table 1, 10 μM in PBS, 15 °C", "value": 68}, {"measurement": "Rg(nm)", "setting": "[1]; Table 1, 10 μM in PBS, 15 °C", "value": 29.9, "unit": "nm"}, {"measurement": "Rh (nm)", "setting": "[1]; Table 1, 10 μM in PBS, 15 °C", "value": 33.3, "unit": "nm"}, {"measurement": "ρ", "setting": "[1]; Table 1, shape factor Rg/Rh", "value": 0.89}, {"measurement": "cell fluorescence (Geometric Mean±StDev)", "setting": "K562+αvβ3 cell line", "value": "8686±8787"}, {"measurement": "core radius (cryo-TEM)", "setting": "[4]", "value": "approximately 12.8 nm"}, {"measurement": "spacing between particle cores (cryo-TEM)", "setting": "[4]", "value": 29.5, "unit": "nm"}, {"measurement": "Spacing (nm)", "setting": "[4]; Table 2, inter-core spacing, mean ± standard deviation", "value": "29.5 ± 4.8", "unit": "nm"}, {"measurement": "Core radius (nm)", "setting": "[4]; Table 2, mean ± standard deviation, 10 μM in 140 mM PBS", "value": "12.8 ± 1.8", "unit": "nm"}, {"measurement": "Core Diameter (nm) [n = 30]", "setting": "[4]; [6]", "value": "24.3 ± 2.8", "unit": "nm"}, {"measurement": "Intra-core Spacing (nm) [n = 30]", "setting": "[4]; [6]", "value": "23.6 ± 4.5", "unit": "nm"}, {"measurement": "Rh (DLS at several temperatures)", "setting": "[3]; between 4 °C and 37 °C, micelles 20-37 °C, 10 μM in 140 mM PBS", "value": 30, "unit": "nm"}]}, {"molecule": "[S]-40-[QHN]-40: block co-polypeptide of two UCST blocks, (GRGDSPYS)40-(GRGDQPHN)40 (protein) GRGDSPYSGRGDSPYSGRGDSPYSGRGDSPYSGRGDSPYSGRGDSPYSGRGDSPYSGRGDSPYSGRGDSPYSGRGDSPYSGRGDSPYSGRGDSPYSGRGDSPYSGRGDSPYSGRGDSPYSGRGDSPYSGRGDSPYSGRGDSPYSGRGDSPYSGRGDSPYSGRGDSPYSGRGDSPYSGRGDSPYSGRGDSPYSGRGDSPYSGRGDSPYSGRGDSPYSGRGDSPYSGRGDSPYSGRGDSPYSGRGDSPYSGRGDSPYSGRGDSPYSGRGDSPYSGRGDSPYSGRGDSPYSGRGDSPYSGRGDSPYSGRGDSPYSGRGDSPYSGRGDQPHNGRGDQPHNGRGDQPHNGRGDQPHNGRGDQPHNGRGDQPHNGRGDQPHNGRGDQPHNGRGDQPHNGRGDQPHNGRGDQPHNGRGDQPHNGRGDQPHNGRGDQPHNGRGDQPHNGRGDQPHNGRGDQPHNGRGDQPHNGRGDQPHNGRGDQPHNGRGDQPHNGRGDQPHNGRGDQPHNGRGDQPHNGRGDQPHNGRGDQPHNGRGDQPHNGRGDQPHNGRGDQPHNGRGDQPHNGRGDQPHNGRGDQPHNGRGDQPHNGRGDQPHNGRGDQPHNGRGDQPHNGRGDQPHNGRGDQPHNGRGDQPHNGRGDQPHN", "values": [{"measurement": "aggregation number (Nagg)", "setting": "[1]", "value": 43}, {"measurement": "hydrodynamic radius (Rh)", "setting": "[1]", "value": 28.4, "unit": "nm"}, {"measurement": "radius of gyration (Rg)", "setting": "[1]", "value": 35.1, "unit": "nm"}, {"measurement": "ρ", "setting": "[1]; Table 9, Rg/Rh", "value": 1.2}, {"measurement": "Nagg", "setting": "[1]; [5]", "value": 43}, {"measurement": "Rg(nm)", "setting": "[1]; [5]", "value": 35.1, "unit": "nm"}, {"measurement": "Rh (nm)", "setting": "[1]; [5]", "value": 28.4, "unit": "nm"}, {"measurement": "critical micelle concentration (CMC)", "setting": "[2]", "value": 3, "unit": "µM"}, {"measurement": "micelle to aggregate transition (UCST aggregation)", "setting": "[3]; upon cooling", "value": 28, "unit": "°C"}, {"measurement": "unimer to micelle transition (critical micellization temperature, CMT)", "setting": "[3]; upon cooling", "value": "~55", "unit": "°C"}]}]}
